# Assay results from patent US8246957 (dated 2012).
# B1: Fv JL427 (scFv)
# scFv: QSVLTQPPSVSGAPGQRVTISCSGSSSNFGLNYVTWQGHFPGTAPKLLIYRNDQRPLGVPARFSGSKSGTSASLAISGLRSEDEADYYCQSYDNSLSGWVFGGGYQLYVLGSSGGGGSGGGGSGGSAQVQLQQSGGGLVQPGRSLRLSCAASGFTFSSYGMHWVRQAPGKGLEWVSYIGRSGSHTNYADSVKGRFTISRDNSKNTLYLQINSLRAEDTAVYYCARGLPNYGMDIWGQGTTVTVSS
# Columns and labels:
# Test in all cases: cell-based or functional assay
# [1] = biological target: T1, gp120 of HIV-1 primary isolate ZA009 (clade C) (HIV-1 strain ZA009)
# [2] = biological target: T1, gp120 of HIV-1 primary isolate ZA009 …; remark: listed apart in the source
# [3] = biological target: gp120 of HIV-1 primary isolate strain 23135 (clade B) (HIV-1 strain 23135)
# [4] = biological target: gp120 of HIV-1 primary isolate Ug046 (clade D) (HIV-1 strain Ug046)
binder,measurement,setting,value
B1,"IC50, HIV-1 neutralization, independent preparations (N=3, mean and s.d.)",[1],0.3 µg/mL
same,"IC50, HIV-1 neutralization (p24, PBMC hosts)",[2],0.3 µg Ab fragment/ml
same,"IC90, HIV-1 neutralization (p24, PBMC hosts)",[2],5.7 µg Ab fragment/ml
same,"IC50, HIV-1 neutralization (p24, PBMC hosts)",[3],22.4 µg Ab fragment/ml
same,"IC90, HIV-1 neutralization (p24, PBMC hosts)",[3],36.7 µg Ab fragment/ml
same,"IC50, HIV-1 neutralization (p24, PBMC hosts)",[4],5.5 µg Ab fragment/ml
same,"IC90, HIV-1 neutralization (p24, PBMC hosts)",[4],12.7 µg Ab fragment/ml
